The target in data set [1] is T1, IFN regulatory factor 3 (IRF3) (mouse (endogenous in peritoneal macrophages, RAW264.7, L929, MEFs)), P70671.
T1 chain: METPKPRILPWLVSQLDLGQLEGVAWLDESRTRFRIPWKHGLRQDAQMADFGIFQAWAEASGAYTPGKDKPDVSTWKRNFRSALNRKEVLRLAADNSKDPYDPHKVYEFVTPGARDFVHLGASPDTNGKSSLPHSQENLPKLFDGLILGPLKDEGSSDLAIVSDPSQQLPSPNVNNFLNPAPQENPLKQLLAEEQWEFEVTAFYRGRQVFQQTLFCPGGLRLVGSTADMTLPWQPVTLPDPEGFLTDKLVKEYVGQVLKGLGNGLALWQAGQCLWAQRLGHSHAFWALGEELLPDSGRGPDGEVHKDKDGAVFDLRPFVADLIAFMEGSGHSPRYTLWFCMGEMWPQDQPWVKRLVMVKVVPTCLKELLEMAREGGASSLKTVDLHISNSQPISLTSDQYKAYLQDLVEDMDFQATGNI
In words: native gel or EMSA. The note with it: remark: other sources report otherwise.

The data set “native gel or EMSA” concerns the molecule itself. In words: native gel or EMSA.

B1: IFN regulatory factor 3 (IRF3), P70671 1-419 (natural protein)
chain: METPKPRILPWLVSQLDLGQLEGVAWLDESRTRFRIPWKHGLRQDAQMADFGIFQAWAEASGAYTPGKDKPDVSTWKRNFRSALNRKEVLRLAADNSKDPYDPHKVYEFVTPGARDFVHLGASPDTNGKSSLPHSQENLPKLFDGLILGPLKDEGSSDLAIVSDPSQQLPSPNVNNFLNPAPQENPLKQLLAEEQWEFEVTAFYRGRQVFQQTLFCPGGLRLVGSTADMTLPWQPVTLPDPEGFLTDKLVKEYVGQVLKGLGNGLALWQAGQCLWAQRLGHSHAFWALGEELLPDSGRGPDGEVHKDKDGAVFDLRPFVADLIAFMEGSGHSPRYTLWFCMGEMWPQDQPWVKRLVMVKVVPTCLKELLEMAREGGASSLKTVDLHISNSQPISLTSDQYKAYLQDLVEDMDFQATGNI
B1 showed a stoichiometry N in data set [1] of 2.

B2: stimulator of interferon genes (STING) (natural protein)
chain: MPYSNLHPAIPRPRGHRSKYVALIFLVASLMILWVAKDPPNHTLKYLALHLASHELGLLLKNLCCLAEELCHVQSRYQGSYWKAVRACLGCPIHCMAMILLSSYFYFLQNTADIYLSWMFGLLVLYKSLSMLLGLQSLTPAEVSAVCEEKKLNVAHGLAWSYYIGYLRLILPGLQARIRMFNQLHNNMLSGAGSRRLYILFPLDCGVPDNLSVVDPNIRFRDMLPQQNIDRAGIKNRVYSNSVYEILENGQPAGVCILEYATPLQTLFAMSQDAKAGFSREDRLEQAKLFCRTLEEILEDVPESRNNCRLIVYQEPTDGNSFSLSQEVLRHIRQEEKEEVTMNAPMTSVAPPPSVLSQEPRLLISGMDQPLPLRTDLI
Regarding B2, the “stoichiometry N” value in the data set “native gel or EMSA” is 2.
